# Measurements as given in US20260242478A1 (published 2026).
# Where no end group is shown, it is not given here.
# Experiments:
# PSMA Fab [1] = molecular target: T1, PSMA Fab; experiment: phage binding ELISA; biotinylated PSMA Fab on neutravidin plate, clonal phage supernatant, anti-M13 HRP detection; column read as anti-PSMA Fab without PSMA antigen
# T1 construct: also called Anti-PSMA Fab; 006 PSMA Fab
# Description: (§1) Clonal phage were harvested as crude supernatants and screened via standard ELISAs. […] Prior to the addition of clonal phage. wells were incubated with blocking buffer and PSMA antigen or blocking buffer alone. Without washing or aspirating, clonal phage supernatants were then added to the wells and incubated for a short time. Wells were then washed followed by detection of bound phage using a horse radish conjugated anti-M13 antibody.
# PSMA Fab [2] = molecular target: T1, PSMA Fab; experiment: phage binding ELISA; biotinylated PSMA Fab on neutravidin plate, clonal phage supernatant, anti-M13 HRP detection; column read as anti-PSMA Fab pre-incubated with PSMA antigen as competitor
# Description: as §1
# PSMA Fab [3] = molecular target: T2, PSMA Fab (biotinylated (site not stated)); experiment: phage ELISA, biotinylated PSMA Fab on neutravidin plate, anti-M13-HRP detection, competitor PSMA antigen pre-incubated
# T2 construct: Biotinylated PSMA Fab captured on neutravidin plates in the phage ELISA; also called Anti-PSMA Fab; 006 PSMA Fab
# PSMA Fab [4] = molecular target: T2, PSMA Fab; experiment: phage ELISA, biotinylated PSMA Fab on neutravidin plate, anti-M13-HRP detection, blocking buffer alone
# Description: as §1
# PSMA Fab (006 PSMA Fab) [5] = molecular target: T3, PSMA Fab (006 PSMA Fab) (biotinylated (site not given)); experiment: clonal phage ELISA; biotinylated PSMA Fab on neutravidin plate, blocking buffer alone; anti-M13 HRP detection;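 also: crude clonal phage supernatants added without washing to wells pretreated with blocking buffer with or without PSMA antigen, short incubation, then washed before detecting bound phage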
# T3 construct: also called Anti-PSMA Fab; anti-PSMA Fab
# PSMA Fab (006 PSMA Fab) [6] = molecular target: T3, PSMA Fab (006 PSMA Fab); experiment: clonal phage ELISA; biotinylated PSMA Fab on neutravidin plate, wells pre-incubated with PSMA antigen as competitor; anti-M13 HRP detection;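 also: crude clonal phage supernatants added to antigen-treated wells without a wash, incubated briefly, then bound phage read out via horse radish–conjugated anti-M13 antibody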
# Description: as §1
Binder,phage binding ELISA signal (PSMA Fab [1]),phage binding ELISA signal (PSMA Fab [2]),"Phage binding ELISA signal, Anti-PSMA Fab (PSMA Fab (006 PSMA Fab) [5])","Phage binding ELISA signal, Anti-PSMA Fab with PSMA antigen (PSMA Fab (006 PSMA Fab) [6])",further results
LVKWCVPDWMCQET [Phage-2598],1.04,0.0671,,,
HEKWCTPPWMCELI [Phage-2654],,,,,"Phage binding ELISA signal, Anti-PSMA Fab with PSMA antigen (PSMA Fab [3]): 0.0717; Phage binding ELISA signal, Anti-PSMA Fab (PSMA Fab [4]): 0.929"
"TDKLCRPPWMCELM (cysteine pairing not given here; also: displayed on phage pIII, linker not given here, Clonal phage of the Peptide-180 library, tested as crude phage supernatant; not shown: pIII filament protein of the bacteriophage) [Phage-2634]",,,0.966,0.065,
"WAKWCTPVWMCQGI (cysteine pairing not given here; also: displayed on phage pIII, linker not given here, Clonal phage of the Peptide-180 library, tested as crude phage supernatant; not shown: pIII filament protein of the bacteriophage) [Phage-2638]",,,0.961,0.136,
"FPKWCTPEWMCSLT (cysteine pairing not given here; also: displayed on phage pIII, linker not given here, Clonal phage of the Peptide-180 library, tested as crude phage supernatant; not shown: pIII filament protein of the bacteriophage) [Phage-2645]",,,0.955,0.0592,
IEKWCMPSWMCEWN [Phage-2601],1.03,0.0609,,,
"LVKWCIPDWMCSLS (cysteine pairing not given here; also: displayed on phage as pIII fusion, fusion junction and sequence not given here, Clonal phage of the Peptide-180 library, tested as crude phage supernatant; not shown: pIII filament protein of the bacteriophage) [Phage-2647]",,,0.952,0.0865,
"DDRWCIPTWMCFLD (cysteine pairing not given here; also: displayed on phage pIII, linker not given here, Clonal phage of the Peptide-180 library, tested as crude phage supernatant; not shown: pIII filament protein of the bacteriophage) [Phage-2636]",,,0.965,0.0733,
VHKWCTPAWMCEVH [Phage-2597],1.04,0.0662,,,
"DLKWCIPSWMCTST (cysteine pairing not given here; also: displayed on phage pIII, linker not given here, Clonal phage of the Peptide-180 library, tested as crude phage supernatant; not shown: pIII filament protein of the bacteriophage) [Phage-2642]",,,0.957,0.0977,
"VEKLCKPAWMCNGQ (cysteine pairing not given here; also: displayed on phage pIII, linker not given here, Clonal phage of the Peptide-180 library, tested as crude phage supernatant; not shown: pIII filament protein of the bacteriophage) [Phage-2643]",,,0.956,0.0808,
"QPKWCTPDWMCTGI (cysteine pairing not given here; also: displayed on phage as pIII fusion, fusion junction and sequence not given here, Clonal phage of the Peptide-180 library, tested as crude phage supernatant; not shown: pIII filament protein of the bacteriophage) [Phage-2646]",,,0.954,0.105,
GMKWCTPEWMCQIV [Phage-2603],1.03,0.28,,,
"VPKWCTPEWMCIIH (cysteine pairing not given here; also: displayed on phage pIII, linker not given here, Clonal phage of the Peptide-180 library, tested as crude phage supernatant; not shown: pIII filament protein of the bacteriophage) [Phage-2640]",,,0.958,0.0705,
"DMKWCTPAWMCQSS (cysteine pairing not given here; also: displayed on phage pIII, linker not given here, Clonal phage of the Peptide-180 library, tested as crude phage supernatant; not shown: pIII filament protein of the bacteriophage) [Phage-2635]",,,0.966,0.0701,
HFNWCTPSWMCDVL [Phage-2592],1.05,0.118,,,
FVNMCKPAWMCSLL [Phage-2655],,,,,"Phage binding ELISA signal, Anti-PSMA Fab with PSMA antigen (PSMA Fab [3]): 0.0949; Phage binding ELISA signal, Anti-PSMA Fab (PSMA Fab [4]): 0.923"
"TVKWCTPPWMCEES (cysteine pairing not given here; also: displayed on phage pIII, linker not given here, Clonal phage of the Peptide-180 library, tested as crude phage supernatant; not shown: pIII filament protein of the bacteriophage) [Phage-2637]",,,0.964,0.0943,

Binder,phage binding ELISA signal (PSMA Fab [1]),phage binding ELISA signal (PSMA Fab [2]),"Phage binding ELISA signal, Anti-PSMA Fab (PSMA Fab (006 PSMA Fab) [5])","Phage binding ELISA signal, Anti-PSMA Fab with PSMA antigen (PSMA Fab (006 PSMA Fab) [6])",further results
MFKWCTPSWMCERV [Phage-2596],1.05,0.176,,,
TDKWCVPEWMCMEF [Phage-2591],1.05,0.0773,,,
HPQLCIPSWMCNVW [Phage-2594],1.05,0.105,,,
DVKWCIPPWMCPSF [Phage-2650],,,,,"Phage binding ELISA signal, Anti-PSMA Fab with PSMA antigen (PSMA Fab [3]): 0.0771; Phage binding ELISA signal, Anti-PSMA Fab (PSMA Fab [4]): 0.944"
MVKWCTPPWMCNFE [Phage-2595],1.05,0.121,,,
"AEKLCIPDWMCDVY (cysteine pairing not given here; also: displayed on phage pIII, linker not given here, Clonal phage of the Peptide-180 library, tested as crude phage supernatant; not shown: pIII filament protein of the bacteriophage) [Phage-2641]",,,0.957,0.0771,
LQNWCVPAWMCELM [Phage-2651],,,,,"Phage binding ELISA signal, Anti-PSMA Fab with PSMA antigen (PSMA Fab [3]): 0.068; Phage binding ELISA signal, Anti-PSMA Fab (PSMA Fab [4]): 0.941"
"VGNWCTPMWMCQAF (cysteine pairing not given here; also: displayed on phage pIII, linker not given here, Clonal phage of the Peptide-180 library, tested as crude phage supernatant; not shown: pIII filament protein of the bacteriophage) [Phage-2639]",,,0.961,0.0864,
ETKLCKPMWMCALL (cysteine pairing not given here; also: displayed on phage as pIII fusion) [Phage-2602],1.03,0.126,,,
"TWKWCTPAWMCSVM (cysteine pairing not given here; also: displayed on phage as pIII fusion, fusion junction and sequence not given here, Clonal phage of the Peptide-180 library, tested as crude phage supernatant; not shown: pIII filament protein of the bacteriophage) [Phage-2649]",,,0.947,0.113,
DGIWCTPRWMCEGM [Phage-2593],1.05,0.0865,,,
ETKWCIPVWMCEHK [Phage-2653],,,,,"Phage binding ELISA signal, Anti-PSMA Fab with PSMA antigen (PSMA Fab [3]): 0.122; Phage binding ELISA signal, Anti-PSMA Fab (PSMA Fab [4]): 0.934"
SNHLCTPPWMCYGF [Phage-2652],,,,,"Phage binding ELISA signal, Anti-PSMA Fab with PSMA antigen (PSMA Fab [3]): 0.0665; Phage binding ELISA signal, Anti-PSMA Fab (PSMA Fab [4]): 0.939"
SVTWCIPPWMCELS [Phage-2600],1.04,0.0673,,,
LSKWCIPDWMCISS [Phage-2599],1.04,0.0618,,,
"PERMCVPQWMCTVT (cysteine pairing not given here; also: displayed on phage pIII, linker not given here, Clonal phage of the Peptide-180 library, tested as crude phage supernatant; not shown: pIII filament protein of the bacteriophage) [Phage-2644]",,,0.956,0.107,
"EYKWCTPIWMCQGN (cysteine pairing not given here; also: displayed on phage as pIII fusion, fusion junction and sequence not given here, Clonal phage of the Peptide-180 library, tested as crude phage supernatant; not shown: pIII filament protein of the bacteriophage) [Phage-2648]",,,0.95,0.0626,
